From patent publication US20210032330A1 (PHANES THERAPEUTICS, published 2021)
One block for each binder: values may come before it.

Experiments:
[1] = molecular target: T1, human T-cell immunoglobulin and mucin-domain containing molecule 3 (TIM-3) (human, UniProt Q8TDQ0 22-200, limits assumed); assay: FACS on HEK293 cells transiently transfected with human TIM-3 (HuTIM-3 cells) against parental HEK293 cells (CTL cells), anti-mouse AlexaFluor488 secondary, MFI
T1 construct: also called Human TIM-3
Protocol: The binding of purified anti-TIM-3 mAbs to HEK293 cells transiently transfected with human TIM-3 (labeled as “HuTIM-3 cells”) or parental HEK293 cells (labeled as “CTL cells”) was tested by FACS at 3 different concentrations. An anti-mouse secondary Ab AlexaFluor488 was used for detection.
A human TIM-3-expressing plasmid was made and transiently transfected into HEK293T cells. After approximately 48 hours, cells were transferred to a 384-well V-bottom plate. Cells were washed with ice-cold FACS buffer (PBS supplemented with 1% BSA) and incubated with purified mAbs with gentle agitation at 4° C. for 45 minutes. The cells were washed with FACS buffer and incubated with an anti-mouse secondary Ab AlexaFluor488. The cells were washed and analyzed by FACS.

[2] = molecular target: T1, human T-cell immunoglobulin and …; assay: competition ELISA: pre-equilibrated mixture of mAb and human TIM3(ECD)-huFc on plate-coated phosphatidylserine (PtdSer, a lipid), anti-huFc-HRP detection, % inhibition
Protocol: ELISA plates were coated with PtdSer or PtdChol, washed and incubated with a pre-equilibrated mixture of purified antibodies at various concentrations and TIM3(ECD)-huFc. The plates were washed and then the signal was detected by incubation with HRP-coupled anti-huFc secondary antibody and then a HRP substrate. TIM-3 binding to PtdSer was used as 100% signal and TIM-3 binding to PtdChol as zero (background) to calculate percent of inhibition by a given mAb.
To determine the effect of anti-TIM-3 antibodies on the interaction of TIM-3 with phosphatidylserine (PtdSer), 384-well ELISA plates were coated with PtdSer or phosphatidylcholine (PtdChol) at room temperature. The wells were washed using PBS supplemented with 0.1% Tween-20 and then blocked using PBS supplemented with 2% bovine serum albumin (BSA). […] The plates were washed and then incubated with HRP-coupled anti-huFc secondary antibody. Plates were washed, incubated with an HRP substrate, and read using a POLARstar Omega Microplate (BMG LABTECH). The assay was performed in triplicate.

binding result [1]: binds
B1: 5-C11-A (antibody, V domains shown)
VH: EVQLVESGGGLVKPGGSLKLSCAASGFTFSDFYMYWVRQTPEKRLEWVATISDGGSYTYYPDSVKGRFTISRDNAKNNLYLQMSSLKSEDTAMYYCASGYYYGSDYVMDYWGQGTSVTVSS
VL: DIVMSQSPSSLAVSAGEKVTMSCKSSQSLLNSRTRKNYLAWYQQKPGQSPKLLIYWASTRESGVPDRFTGSGSGTDFTLTISSVQADDLAVYYCKQSYNLLTFGAGTKLELK
notes: also called anti-TIM-3 monoclonal antibody 5-C11-A

binding result [1]: binds
B3: 2-K2-A (antibody, V domains shown)
VH: QVQLQQSGAELAKPGASVKMSCKASGYTFTTYWMHWVKQRPGQGLEWIGYINPSTGYTEYNQKFKDKSTLTADKSSSTAYMQLSSLTSEDSAVYYCANDHEGGFAYWGQGTLVTVSA
VL: DILMTQSPSSMSVSLGDTVSITCHASQGISSNIGWLQQKPGKSFKGLIYHGTNLEDGVPSRFSGSGSGADYSLTISSLESEDFADYYCVQYAQFPFTFGSGTKLEIK
notes: also called anti-TIM-3 monoclonal antibody 2-K2-A

Continued, binder first:

B2: 12-G18-A (antibody, V domains shown)
VH: DVQLQESGPGLVKPSQSLSLTCTVTGYSITSDYAWNWIRQFPGNKLEWMGYISYSGSTSYNPSLKSRISITRDTSKNQFFLQLNSVTIGDTATYYCASNYRYDYWFFGVWGAGTTVTVSS
VL: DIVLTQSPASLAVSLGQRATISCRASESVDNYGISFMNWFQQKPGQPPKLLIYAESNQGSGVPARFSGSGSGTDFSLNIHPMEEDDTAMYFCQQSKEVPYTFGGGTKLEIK
notes: also called anti-TIM-3 monoclonal antibody 12-G18-A
IC50 (read off the curve) [2]: ~6 nM

B4: 19-A14-A (antibody, V domains shown)
VH: DVQLQGSGPGLVKPSQSLSLTCTVTGYSITSDYAWNWIRQFPGNILEWMGYISYSGSTSYNPSLKSRISITRDTSKNQFFLQLNSVTTEDTATYYCARDGRYDYYAMDYWGQGTSVTVSS
VL: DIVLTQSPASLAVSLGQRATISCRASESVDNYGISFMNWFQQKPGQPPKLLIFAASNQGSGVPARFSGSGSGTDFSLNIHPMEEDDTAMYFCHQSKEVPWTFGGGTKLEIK
notes: also called anti-TIM-3 monoclonal antibody 19-A14-A
IC50 (read off the curve) [2]: ~7 nM
